Results as given in US20110117602A1.

Experiments:
[1] = biological target: HLA-DR on Daudi cells (human); experiment: FACS analysis, PE-labeled L243 on Daudi cells
[2] = biological target: HLA-DR on M8166 cells (human); experiment: FACS analysis, PE-labeled L243 on M8166 cells

Sequence of L243 mouse monoclonal antibody to HLA-DR α chain (VH): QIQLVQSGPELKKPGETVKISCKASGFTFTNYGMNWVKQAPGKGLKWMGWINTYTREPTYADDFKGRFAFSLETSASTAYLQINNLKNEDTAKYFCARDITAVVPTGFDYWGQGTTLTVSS
Sequence of L243 mouse monoclonal antibody to HLA-DR α chain (VL): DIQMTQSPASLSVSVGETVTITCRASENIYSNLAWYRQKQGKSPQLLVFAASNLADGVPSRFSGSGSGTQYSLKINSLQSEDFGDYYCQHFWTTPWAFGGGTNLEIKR

fluorescence as a fraction of that of S1T cells [1]: 0.1 | fluorescence as a fraction of that of S1T cells [2]: 0.01
Substance: L243 mouse monoclonal antibody to HLA-DR α chain
